*1 amine or outer side, *2 acyl side, *3 side chain or, on linkers, in order; H or OH if unused. [ ]: non-standard residue; d: D form. 3AzaPhe4AcPip = (S)-3-(6-(4-acetylpiperazin-1-yl)pyridin-3-yl)-2-aminopropanoic acid, CC(=O)N1CCN(c2ccc(C[C@H](N[*:1])C(=O)[*:2])cn2)CC1; Trp(4-Cl)(βS-Me) = C[C@@H](c1c[nH]c2cccc(Cl)c12)[C@H](N)C(=O)O; Ala(piperidin-4-yl) = O=C([C@H](CC1CCN([*:3])CC1)N[*:1])[*:2]; Pro(trans-4-NH2) = O=C([C@@H]1C[C@@H](N[*:3])CN1[*:1])[*:2]; Bip(4'-COOH) = N[C@@H](Cc1ccc(-c2ccc(C(=O)O)cc2)cc1)C(=O)O; 1Nal(3S-Me) = C[C@@H](c1cccc2ccccc12)[C@H](N)C(=O)O; Phe(4-COOH) = N[C@@H](Cc1ccc(C(=O)O)cc1)C(=O)O; h3Pal(5-CN) = N#Cc1cncc(CC[C@H](N)C(=O)O)c1; hTyr = N[C@@H](CCc1ccc(O)cc1)C(=O)O; 3Pal = N[C@@H](Cc1cccnc1)C(=O)O; 4Pal = N[C@@H](Cc1ccncc1)C(=O)O; dDab = NCC[C@@H](N)C(=O)O; dNMeA = CN[C@H](C)C(=O)O; Dap = NC[C@H](N)C(=O)O
B1: SEQ ID NO: 42 (peptide)
peptide: cyclo([Bip(4'-COOH)]W[Phe(4-COOH)]G[Pro(trans-4-NH2)][Trp(4-Cl)(βS-Me)]D[dNMeA]G[Bip(4'-COOH)]KL[dA][hTyr])
SMILES: CC(C)C[C@@H]1NC(=O)[C@H](CCCCN)NC(=O)[C@H](Cc2ccc(-c3ccc(C(=O)O)cc3)cc2)NC(=O)CNC(=O)[C@@H](C)N(C)C(=O)[C@H](CC(=O)O)NC(=O)[C@H]([C@@H](C)c2c[nH]c3cccc(Cl)c23)NC(=O)[C@@H]2C[C@@H](N)CN2C(=O)CNC(=O)[C@H](Cc2ccc(C(=O)O)cc2)NC(=O)[C@H](Cc2c[nH]c3ccccc23)NC(=O)[C@H](Cc2ccc(-c3ccc(C(=O)O)cc3)cc2)NC(=O)[C@H](CCc2ccc(O)cc2)NC(=O)[C@@H](C)NC1=O
B2: SEQ ID NO: 4 (peptide)
peptide: cyclo([3AzaPhe4AcPip]W[Phe(4-COOH)]G[Pro(trans-4-NH2)][1Nal(3S-Me)]D[dNMeA]G[Bip(4'-COOH)]W[Dap][dA][h3Pal(5-CN)])
SMILES: CC(=O)N1CCN(c2ccc(C[C@@H]3NC(=O)[C@H](CCc4cncc(C#N)c4)NC(=O)[C@@H](C)NC(=O)[C@H](CN)NC(=O)[C@H](Cc4c[nH]c5ccccc45)NC(=O)[C@H](Cc4ccc(-c5ccc(C(=O)O)cc5)cc4)NC(=O)CNC(=O)[C@@H](C)N(C)C(=O)[C@H](CC(=O)O)NC(=O)[C@H]([C@@H](C)c4cccc5ccccc45)NC(=O)[C@@H]4C[C@@H](N)CN4C(=O)CNC(=O)[C@H](Cc4ccc(C(=O)O)cc4)NC(=O)[C@H](Cc4c[nH]c5ccccc45)NC3=O)cn2)CC1
B3: SEQ ID NO: 38 (peptide)
peptide: cyclo([Bip(4'-COOH)]W[Phe(4-COOH)]G[Pro(trans-4-NH2)][Trp(4-Cl)(βS-Me)]D[dNMeA]G[Bip(4'-COOH)][3Pal]S[dA][hTyr])
SMILES: C[C@@H]1C(=O)NCC(=O)N[C@@H](Cc2ccc(-c3ccc(C(=O)O)cc3)cc2)C(=O)N[C@@H](Cc2cccnc2)C(=O)N[C@@H](CO)C(=O)N[C@H](C)C(=O)N[C@@H](CCc2ccc(O)cc2)C(=O)N[C@@H](Cc2ccc(-c3ccc(C(=O)O)cc3)cc2)C(=O)N[C@@H](Cc2c[nH]c3ccccc23)C(=O)N[C@@H](Cc2ccc(C(=O)O)cc2)C(=O)NCC(=O)N2C[C@H](N)C[C@H]2C(=O)N[C@@H]([C@@H](C)c2c[nH]c3cccc(Cl)c23)C(=O)N[C@@H](CC(=O)O)C(=O)N1C
B4: SEQ ID NO: 40 (peptide)
peptide: cyclo([Bip(4'-COOH)]W[Phe(4-COOH)]G[Pro(trans-4-NH2)][Trp(4-Cl)(βS-Me)]D[dNMeA]G[Bip(4'-COOH)][Ala(piperidin-4-yl)]S[dA][hTyr])
SMILES: C[C@@H]1C(=O)NCC(=O)N[C@@H](Cc2ccc(-c3ccc(C(=O)O)cc3)cc2)C(=O)N[C@@H](CC2CCNCC2)C(=O)N[C@@H](CO)C(=O)N[C@H](C)C(=O)N[C@@H](CCc2ccc(O)cc2)C(=O)N[C@@H](Cc2ccc(-c3ccc(C(=O)O)cc3)cc2)C(=O)N[C@@H](Cc2c[nH]c3ccccc23)C(=O)N[C@@H](Cc2ccc(C(=O)O)cc2)C(=O)NCC(=O)N2C[C@H](N)C[C@H]2C(=O)N[C@@H]([C@@H](C)c2c[nH]c3cccc(Cl)c23)C(=O)N[C@@H](CC(=O)O)C(=O)N1C
B5: SEQ ID NO: 41 (peptide)
peptide: cyclo([Bip(4'-COOH)]W[Phe(4-COOH)]G[Pro(trans-4-NH2)][Trp(4-Cl)(βS-Me)]D[dNMeA]G[Bip(4'-COOH)][Dap]S[dA][hTyr])
SMILES: C[C@@H]1C(=O)NCC(=O)N[C@@H](Cc2ccc(-c3ccc(C(=O)O)cc3)cc2)C(=O)N[C@@H](CN)C(=O)N[C@@H](CO)C(=O)N[C@H](C)C(=O)N[C@@H](CCc2ccc(O)cc2)C(=O)N[C@@H](Cc2ccc(-c3ccc(C(=O)O)cc3)cc2)C(=O)N[C@@H](Cc2c[nH]c3ccccc23)C(=O)N[C@@H](Cc2ccc(C(=O)O)cc2)C(=O)NCC(=O)N2C[C@H](N)C[C@H]2C(=O)N[C@@H]([C@@H](C)c2c[nH]c3cccc(Cl)c23)C(=O)N[C@@H](CC(=O)O)C(=O)N1C
B6: SEQ ID NO: 44 (peptide)
peptide: cyclo([Bip(4'-COOH)]W[Phe(4-COOH)]G[Pro(trans-4-NH2)][Trp(4-Cl)(βS-Me)]D[dNMeA]G[Bip(4'-COOH)]KL[dS][hTyr])
SMILES: CC(C)C[C@@H]1NC(=O)[C@H](CCCCN)NC(=O)[C@H](Cc2ccc(-c3ccc(C(=O)O)cc3)cc2)NC(=O)CNC(=O)[C@@H](C)N(C)C(=O)[C@H](CC(=O)O)NC(=O)[C@H]([C@@H](C)c2c[nH]c3cccc(Cl)c23)NC(=O)[C@@H]2C[C@@H](N)CN2C(=O)CNC(=O)[C@H](Cc2ccc(C(=O)O)cc2)NC(=O)[C@H](Cc2c[nH]c3ccccc23)NC(=O)[C@H](Cc2ccc(-c3ccc(C(=O)O)cc3)cc2)NC(=O)[C@H](CCc2ccc(O)cc2)NC(=O)[C@@H](CO)NC1=O
B7: SEQ ID NO: 45 (peptide)
peptide: cyclo([Bip(4'-COOH)]W[Phe(4-COOH)]G[Pro(trans-4-NH2)][Trp(4-Cl)(βS-Me)]D[dNMeA]G[Bip(4'-COOH)]KS[dA][hTyr])
SMILES: C[C@@H]1C(=O)NCC(=O)N[C@@H](Cc2ccc(-c3ccc(C(=O)O)cc3)cc2)C(=O)N[C@@H](CCCCN)C(=O)N[C@@H](CO)C(=O)N[C@H](C)C(=O)N[C@@H](CCc2ccc(O)cc2)C(=O)N[C@@H](Cc2ccc(-c3ccc(C(=O)O)cc3)cc2)C(=O)N[C@@H](Cc2c[nH]c3ccccc23)C(=O)N[C@@H](Cc2ccc(C(=O)O)cc2)C(=O)NCC(=O)N2C[C@H](N)C[C@H]2C(=O)N[C@@H]([C@@H](C)c2c[nH]c3cccc(Cl)c23)C(=O)N[C@@H](CC(=O)O)C(=O)N1C
B8: SEQ ID NO: 39 (peptide)
peptide: cyclo([Bip(4'-COOH)]W[Phe(4-COOH)]G[Pro(trans-4-NH2)][Trp(4-Cl)(βS-Me)]D[dNMeA]G[Bip(4'-COOH)][4Pal]S[dA][hTyr])
SMILES: C[C@@H]1C(=O)NCC(=O)N[C@@H](Cc2ccc(-c3ccc(C(=O)O)cc3)cc2)C(=O)N[C@@H](Cc2ccncc2)C(=O)N[C@@H](CO)C(=O)N[C@H](C)C(=O)N[C@@H](CCc2ccc(O)cc2)C(=O)N[C@@H](Cc2ccc(-c3ccc(C(=O)O)cc3)cc2)C(=O)N[C@@H](Cc2c[nH]c3ccccc23)C(=O)N[C@@H](Cc2ccc(C(=O)O)cc2)C(=O)NCC(=O)N2C[C@H](N)C[C@H]2C(=O)N[C@@H]([C@@H](C)c2c[nH]c3cccc(Cl)c23)C(=O)N[C@@H](CC(=O)O)C(=O)N1C
B9: SEQ ID NO: 43 (peptide)
peptide: cyclo([Bip(4'-COOH)]W[Phe(4-COOH)]G[Pro(trans-4-NH2)][Trp(4-Cl)(βS-Me)]D[dNMeA]G[Bip(4'-COOH)]KL[dDab][hTyr])
SMILES: CC(C)C[C@@H]1NC(=O)[C@H](CCCCN)NC(=O)[C@H](Cc2ccc(-c3ccc(C(=O)O)cc3)cc2)NC(=O)CNC(=O)[C@@H](C)N(C)C(=O)[C@H](CC(=O)O)NC(=O)[C@H]([C@@H](C)c2c[nH]c3cccc(Cl)c23)NC(=O)[C@@H]2C[C@@H](N)CN2C(=O)CNC(=O)[C@H](Cc2ccc(C(=O)O)cc2)NC(=O)[C@H](Cc2c[nH]c3ccccc23)NC(=O)[C@H](Cc2ccc(-c3ccc(C(=O)O)cc3)cc2)NC(=O)[C@H](CCc2ccc(O)cc2)NC(=O)[C@@H](CCN)NC1=O

Biological target: Recombinant human IL-1β (BioLegend 579404) (human, UniProt P01584 117-269)
Test: cell-based or functional assay

| MRC5 IC50 | Binder |
| --- | --- |
| 0.627 nM | B1 |
| 0.0438 nM | B2 |
| 0.217 nM | B3 |
| 0.508 nM | B4 |
| 0.469 nM | B5 |
| 0.132 nM | B6 |
| 0.174 nM | B7 |
| 0.232 nM | B8 |
| 0.244 nM | B9 |

From US20230406885A1, “CYCLIC PEPTIDES FOR TRAPPING INTERLEUKIN-1 BETA” (MERCK SHARP & DOHME LLC, priority 2022, published 2023)
